B1: miR-489: microRNA-489 (SEQ ID NO: 2); overexpressed in cells, e.g. from miR-489 expressing vector in the luciferase assay (nucleic acid, listed as Homo sapiens)
chain: GUGGCAGCUUGGUGGUCGUAUGUGUGACGCCAUUUACUUGAACCUUUAGGAGUGACAUCACAUAUACGGCAGCUAAACUGCUAC

How the values were obtained:
[1] = test system: miR-489, miR-125b and miR-99a expression in MCF7 HER2 cells; test: qRT-PCR of HER2-regulated miRNAs after lapatinib treatment; format: cell-based; conditions: lapatinib treated MCF7 HER2 cells, qRT-PCR (FIG. 4)
Experimental: All data are representative of three independent experiments.
(§1) Quantitative real-time RT-PCR analysis, Immunohistochemistry staining (IHC), Western Blot analysis, Fluorescence-Activated Cell Sorting (FACS) assay, Luciferase assay and Xenograft experiments were performed using standard protocol.
(§2) To identify specific miRNAs that may be involved in promotion of breast cancer progression, expression profiles of several (˜200) miRNA were screened and compared for HER2 over-expressing and control MCF7 cells using quantitative RT-PCR (qRT-PCR) analysis.

[2] = test system: HER2, AKT and MAPK phosphorylation in MCF7 vect and MCF7 HER2 cells; test: Western blot of HER2 signaling after lapatinib treatment; format: cell-based; conditions: 2 μM lapatinib, 48 h, Western blot (FIG. 3)
Experimental: as §1, §2

3′UTR of HER2 = test: Dual luciferase assay with HER2 3′UTR reporter constructs; format: cell-based, human; conditions: MCF7 HER2 cells, co-transfected 48 h, normalized with renilla (FIG. 16)
Experimental: FIG. 16 presents a schematic representation of the HER2 mRNA (wild type (wt) and mutant (mut)) with putative miR-489 binding site in the 3′ UTR, where the seed region is highlighted. MCF7 HER2 cells were co-transfected with either of miR-489 expressing vector or empty vector and renilla expressing vector for 48 h. Firefly luciferase was measured for each condition and normalized with renilla luciferase. Normalized luciferase activity was compared with WT-3′UTR and Mutant 3′ UTR of HER2 (graph).
A 650 bp long 3′ UTR of human HER2 was amplified from genomic DNA and cloned into the pGL3-promoter vector at the same Xba I and BamH I sites. For the mutation analysis putative miR-489 target site within 3′UTR of HER2 was mutated by Phusion site directed mutagenesis kit (Thermofisher Cat# F-541). All sequences were verified by direct sequencing of the plasmids.
as §1
To examine the similar effect of mimic-489 treatment on the expression of HER2, other breast cancer cell lines, AU-565, BT-474, HCC-1954 and ZR-75-1 cells were treated with mimic-489 for 72 hours to isolate total protein and RNA. […]

SHP2 = SHP2 expression in breast cancer cell lines after miR-489 overexpression; format: cell-based; conditions: mRNA and protein levels

| Molecule | expression of miR-489, miR-125b and miR-99a after inhibition of HER2 phosphorylation [1] | HER2, AKT and MAPK phosphorylation [2] | luciferase activity of mutant HER2 3′UTR (3′UTR of HER2) | luciferase activity of wt HER2 3′UTR (3′UTR of HER2) | SHP2 expression (SHP2) |
| --- | --- | --- | --- | --- | --- |
| CS(=O)(=O)CCNCc1ccc(-c2ccc3ncnc(Nc4ccc(OCc5cccc(F)c5)c(Cl)c4)c3c2)o1 [lapatinib] | at least partially restored the expression profile | almost complete blockade | – | – | – |
| B1 | – | – | not the mutant HER2 3′UTR is significantly reduced | significantly reduced | reduced SHP2 expression |

— US10053696B2, “MiRNA-489 in treatment of breast cancer” (University of South Carolina, priority 2016, dated 2018)
